Tests used:
[1] = system: fragment of MORT-1 corresponding to residues 1-117; experiment: Two-hybrid test (FIG. 1), binding to MORT-1 residues 1-117
Description: (§1) To isolate proteins interacting with the intracellular domain of the FAS-R, the yeast two-hybrid system was used (Fields and Song, 1989). […] In this system, the genes for the candidate interacting proteins are cloned into separate expression vectors. In one expression vector, the sequence of the one candidate protein is cloned in phase with the sequence of the GAL4 DNA-binding domain to generate a hybrid protein with the GAL4 DNA-binding-domain, and in the other vector, the sequence of the second candidate protein is cloned in phase with the sequence of the GAL4 activation domain to generate a hybrid protein with the GAL4-activation domain. The two hybrid vectors are then co-transformed into a yeast host strain having a lacZ or HIS3 reporter gene under the control of upstream GAL4 binding sites. Only those transformed host cells (cotransformants) in which the two hybrid proteins are expressed and are capable of interacting with each other, will be capable of expressing the reporter gene. In the case of the lacZ reporter gene, host cells expressing this gene will become blue in color when X-gal is added to the cultures. […]
(§2) In FIG. 1, there is depicted the interaction of the proteins encoded by the Gal4 DNA binding domain and activation-domain constructs (pGBT9 and pGAD-GH) within transfected SFY526 yeasts as assessed by β-galactosidase expression filter assay. […]

MORT-1 = biological target: T1, MORT-1 (Homo sapiens, UniProt Q13158, G32V); experiment: Two-hybrid test (FIG. 1), binding to full-length MORT-1; parameters: expressed in transfected cells; host or cells: SFY526 yeast
T1 sequence (Q13158 with tags, fused parts or gaps G32V): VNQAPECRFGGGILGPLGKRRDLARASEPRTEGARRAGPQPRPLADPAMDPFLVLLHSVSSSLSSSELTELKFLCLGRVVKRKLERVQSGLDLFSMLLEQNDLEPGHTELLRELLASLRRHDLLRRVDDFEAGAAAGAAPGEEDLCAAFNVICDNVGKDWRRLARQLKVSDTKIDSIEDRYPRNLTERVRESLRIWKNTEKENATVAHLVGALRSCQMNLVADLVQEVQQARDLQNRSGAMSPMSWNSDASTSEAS
Description: To isolate proteins interacting with the intracellular domain of the FAS-R, the yeast two-hybrid system was used (Fields and Song, 1989). […] In this system, the genes for the candidate interacting proteins are cloned into separate expression vectors. In one expression vector, the sequence of the one candidate protein is cloned in phase with the sequence of the GAL4 DNA-binding domain to generate a hybrid protein with the GAL4 DNA-binding-domain, and in the other vector, the sequence of the second candidate protein is cloned in phase with the sequence of the GAL4 activation domain to generate a hybrid protein with the GAL4-activation domain. The two hybrid vectors are then co-transformed into a yeast host strain having a lacZ or HIS3 reporter gene under the control of upstream GAL4 binding sites. Only those transformed host cells (cotransformants) in which the two hybrid proteins are expressed and are capable of interacting with each other, will be capable of expressing the reporter gene. In the case of the lacZ reporter gene, host cells expressing this gene will become blue in color when X-gal is added to the cultures.
(b) retransforming the plasmid DNA and original FAS-IC hybrid plasmid and control plasmids described in (a) into yeast host cells of strain SFY526 and determining the LACZ^+ activity (effectivity of β-gal formation, i.e., blue color formation).
In FIG. 1, there is depicted the interaction of the proteins encoded by the Gal4 DNA binding domain and activation-domain constructs (pGBT9 and pGAD-GH) within transfected SFY526 yeasts as assessed by β-galactosidase expression filter assay. The DNA-binding-domain constructs included four constructs of the human Fas-IC, four constructs of the mouse Fas-IC including two full-length constructs having […] or Ile to Ala replacement mutations at position 225 (I225N and I225A, respectively), and three MORT-1 constructs, all of which are shown schematically on the left hand side of FIG. 1. […]

FAS-IC = biological target: T2, FAS-IC (Homo sapiens, UniProt P25445); experiment: Two-hybrid test (FIG. 1), binding of MORT-1 fragments to FAS-IC
T2 construct: the FAS-IC extends-from amino acid residues 175-319 of the intact FAS-R; expressed in transfected cells; host or cells: SFY526 yeast
T2 sequence (P25445 191-335): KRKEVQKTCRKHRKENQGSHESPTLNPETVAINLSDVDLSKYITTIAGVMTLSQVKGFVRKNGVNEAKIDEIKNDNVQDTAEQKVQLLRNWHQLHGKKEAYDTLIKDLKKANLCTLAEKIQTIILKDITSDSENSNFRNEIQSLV
Description: as §1, §2

[2] = system: FAS-R mediated cell death in HeLa cells; experiment: Anti-FAS-R antibody (CH-11) induced death of HeLa cells co-expressing FAS-R, neutral-red uptake; assay type: cell-based; details: co-expression with human FAS-R in HeLa HtTA-1; CH-11 antibody plus 10 μg/ml cycloheximide
Description: In another set of experiments to analyze the region of the MORT-1 protein involved in the binding to the FAS-IC, the following proteins were expressed transiently in HeLa cells that contain a tetracycline-controlled transactivator (HtTA-1), using a tetracycline-controlled expression vector (pUHD10-3): Human FAS-R alone; Human FAS-R as well as the N-terminal part of MORT-1 (amino acids 1-117, the “MORT-1 head”); Human FAS-R as well as the C-terminal part of MORT-1, which contains its ‘death domain’ homology region (amino acids 130-245, the “MORT-1 DD”); FLAG-55.11 (amino acids 309-900 of protein 55.11 fused at the N-terminus to the FLAG octapeptide, the protein 55.11 being a p55-IC-specific binding protein. Twelve hours after transfection, the cells were trypsinized and re-seeded at a concentration of 30,000 cells/well. After 24 hrs further incubation, the cells were treated for 6 hrs with a monoclonal antibody against the extracellular domain of FAS-R (monoclonal antibody CH-11, Oncor, Gaithersburg, Md., USA) at various concentrations (0.001-10 μg/ml monoclonal antibody), in the presence of 10 μg/ml cycloheximide. Cell viability was then determined by the neutral-red uptake assay and the results were presented in terms of % viable cells as compared to cells that had been incubated with cycloheximide alone (in the absence of anti-FAS-R monoclonal antibody CH-11). […]

B1: fragment of MORT-1 corresponding to residues 1-117: N-terminal part of MORT-1, amino acids 1-117 (protein)
chain: VNQAPECRFGGGILGPLGKRRDLARASEPRTEGARRAGPQPRPLADPAMDPFLVLLHSVSSSLSSSELTELKFLCLGRVVKRKLERVQSGLDLFSMLLEQNDLEPGHTELLRELLAS
binding to MORT-1 residues 1-117 in two-hybrid test [1]: does not bind
binding to full-length MORT-1 in two-hybrid test (MORT-1): binds
binding to FAS-IC / FAS-R in two-hybrid test (FAS-IC): does not bind
effect on FAS-induced (FAS-R mediated) cell death [2]: does not interfere

Reference: US7799901B2, “Modulators of the function of FAS receptors and other proteins” (Yeda Research and Development Co. Ltd., priority 1995, dated 2010)
